Laboratory results as given in patent US20250270298A1.

B1: CjaD-ECD-1A7 (VHH, not shown: small tags and cut ends)
VHH: EVQLVESGGGLVQAGGSLRLSCATSGFTPGDYAIGWFRQAPGKAREGVSCLSTRDGTTYYADSVKGRFTISTDNAQNTVYLQMNSLKPEDTAVYYCAGEQISFRAVYYCTEYEPVYWSQGTQVTVSS
B2: CadF-ECF-1D10 (VHH, not shown: small tags and cut ends)
VHH: EVQLVESGGGLVQPGGSLRLSCAASGFTLDDYAVGWFRQAPGKEREWLSGISSRDGSTVYADSVKGRFTISRDNAKNTYYLQMNSLKPEDTAVYYCAAAVGYILTRVKSHYNDWSQGTQVTVSS
B3: CmeC-ECM-1G7 (VHH)
VHH: EVQLVESGGDLVQDGGSLRLSCAASGGDFRNPVTGWYRQAPGKQRELVGLITSDGRTNYGDSVMGRFTISMDTAKNTMYLQMNSLKPEDSAVYYCAASLLYGGLQFSTNIWGQGTQVTVSS
B4: Flagella-ECF-1B6 (VHH)
VHH: EVQLVESGGGLVQSGGSLRLSCAASGRIFSITNMGWYRQAPGEQRELVADMPSGGSTNYADSVKGRFTISRDIAKNTVYLQMNSLKPEDTAVYYCNLKMSQPGWLVTNHNFWGQGTQVTVSS
B5: CmeC-ECM-1C11 (VHH)
VHH: EVQLVESGGGLVQPGGSLRLSCAASGFTFSDQPMGWYRQAPGQGREWIAFISSGSGGTTDYKNSVKGRFTISRDNAKNIVYLQMNSLKPDDTARYYCNFRIDNNYWGQGTQVTVSS
B6: CmeC-ECM-1D6 (VHH)
VHH: EVQLVESGGGLVQAGGSLRLSCAASGGTFSRYMMGWFRQAPGKEREFVASIARSGGTYFADSVKGRLTATRDDAKNTMHLQMNSLKPEDTAVYYCAAGAGGSYPALLDFEYLVWGQGTQVTVSS
B7: CadF-ECF-1F10 (VHH, not shown: small tags and cut ends)
VHH: EVQLVESGGGSVQAGGSLRLSCTASIRAGNRYAMGWFRQAPGKEREFVAGISWSGGNTYHADSVNGRFTISRDNAKNTLYLTMNSLKSEDTAVYYCAASWKPLTFRGDDYTYWGQGTQVTVSS
B8: Flagella-ECF-1D9 (VHH)
VHH: EVQLVESGGGLVEPGGSLRLSCATSGFAFDNYCMYWVRQAPGKGLEWISGITNSGSFSYYADSVKGRFTISRDNAKNTLFLEMNSLTVDDTAVYYCAIHGHGCTWDSLRTTSGPRYRGQGTQVTVSS
B9: CfrA-ECA-1G7 (VHH, not shown: small tags and cut ends)
VHH: EVQLVESGGGLVQPGGSLRLSCTASGSSLDYYAIGWFRQAPGKEREGVSCISSRDGRIYWADSVEGRFTISRDNGKNTVYLQMNSLKPEDTAVYYCATSRWSFCPSDWSPVPSPFGSWGQGTQVTVSS
B10: Flagella-ECF-1G8 (VHH)
VHH: EVQLVESGGGLVEAGGSLTLSCTTSEPTSLLNLMGWWRQGPGKEREFVASSNWSGKLVDYADGVEGRFTVIRNEDENAISLQMNSLTVEDTAIYYCAASRLGLPRSAQANQYWGQGTQVTVSS
B11: CjaD-ECD-1D3 (VHH, not shown: small tags and cut ends)
VHH: EVQLVESGGGLVQTGGSLRLSCATSGFTFEYSAIAWFRQAPGKGREGVSCISNRDGTTVYADSVKGRFTISSDNAKNTVYLQMNSLTPEDTGVYYCAADAGVYTADYCRDSRYDPVSKDAWGKGTLVTVSS
B12: Flagella-ECF-1F4 (VHH)
VHH: EVQLVESGGGLVQPGGSLRLSCEAAGSILRVNSMGWYRQAPGKQRDLVSIITSNNDAKYSDSVRGRFTISRDNAKNTVYLQMSSLKPDDTAVYYCNAYVETAGWIPTTHNLWGQGTQVTVSS
B13: Flagella-ECF-1C4 (VHH)
VHH: EVQLVESGGGLVQAGGSLRVSCAASGRAVHNYALNWFRQAPGKAREFVSAISWTRRTYYANSVRGRFTISRDNNGNMVHLQMSNLKSEDTALYYCAAATTWPRLDGAEYWGQGTQVTVSS

Columns and labels:
[1] = biological target: CjaD (Campylobacter jejuni); assay: ELISA on directly coated CjaD (200 ng/well), serial dilution of purified VHH, anti-FLAG + anti-mouse-HRP, OPD, absorption at 490 nm
[2] = biological target: CadF (Campylobacter jejuni); assay: ELISA on directly coated CadF (200 ng/well), serial dilution of purified VHH, rabbit anti-VHH + anti-rabbit-HRP, OPD, absorption at 490 nm
[3] = biological target: CmeC (Campylobacter jejuni); assay: ELISA on directly coated CmeC (200 ng/well), serial dilution of purified VHH, anti-FLAG + anti-mouse-HRP, OPD, absorption at 490 nm
[4] = biological target: C. jejuni flagella (Campylobacter jejuni); assay: apparent affinity estimated from ELISA dose response on immobilized Cj flagella
[5] = biological target: C. jejuni flagella (Campylobacter jejuni); assay: ELISA dose response, purified VHH on immobilized Cj flagella, rabbit anti-VHH detection
[6] = biological target: CfrA (Campylobacter jejuni); assay: ELISA on directly coated CfrA (200 ng/well), serial dilution of purified VHH, anti-FLAG + anti-mouse-HRP, OPD, absorption at 490 nm
[7] = biological target: CjaD (Campylobacter jejuni); assay: apparent affinity from ELISA dose response, purified VHH on immobilized CjaD, anti-FLAG detection

Binder	Kd [4]	Relative Bmax [5]	also measured
B1	–	–	EC50 (read off the curve) [1]: 2 nM
B2	–	–	EC50 (read off the curve) [2]: 0.7 nM
B3	–	–	EC50 (read off the curve) [3]: 0.3 nM
B4	5 nM	2.5	–
B5	–	–	EC50 (read off the curve) [3]: 0.4 nM
B6	–	–	EC50 (read off the curve) [3]: 0.7 nM
B7	–	–	EC50 (read off the curve) [2]: 0.4 nM
B8	9 nM	3	–
B9	–	–	EC50 (read off the curve) [6]: 9 nM
B10	7 nM	2.5	–
B11	–	–	Kd [7]: 0.06 nM
B12	0.6 nM	2.5	–
B13	4 nM	3	–
